The supplement of paper PMC9112550, “Optimization of the antimicrobial peptide Bac7 by deep mutational scanning” (BMC Biology, 2022)

What follows are sequences tested on Escherichia coli TOP10 (assay: shrunken log2 fold change of peptide-encoding DNA abundance (4.5 h post-induction vs induction); higher = less antimicrobial activity (less host growth inhibition)). Conditions: time post-induction: 4.5 h; library: site-saturation at positions 5, 18, 19, 20.
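Also: peptides expressed intracellularly from a pBAD plasmid library in pooled LB shake-flask culture, induced with 0.3% L-arabinose, DNA abundance read by NGS, three biological replicates, DESeq2 with apeglm shrinkage.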

Sequence	shrunken log2 fold change
RRIRHRPPRLPRPRPRPSDSPRP	-0.0454
RRIRHRPPRLPRPRPRPSDWPRP	-0.327
RRIRHRPPRLPRPRPRPSEWPRP	-0.0167
RRIRHRPPRLPRPRPRPSFGPRP	-0.561
RRIRHRPPRLPRPRPRPSHFPRP	-0.0233
RRIRHRPPRLPRPRPRPSIAPRP	-0.0614
RRIRHRPPRLPRPRPRPSIIPRP	-0.237
RRIRHRPPRLPRPRPRPSIRPRP	-0.345
RRIRHRPPRLPRPRPRPSKIPRP	-0.517
RRIRHRPPRLPRPRPRPSLHPRP	-0.652
RRIRHRPPRLPRPRPRPSMHPRP	-0.705
RRIRHRPPRLPRPRPRPSMTPRP	0.0628
RRIRHRPPRLPRPRPRPSNKPRP	-0.802
RRIRHRPPRLPRPRPRPSPQPRP	-0.358
RRIRHRPPRLPRPRPRPSQEPRP	-0.27
RRIRHRPPRLPRPRPRPSQVPRP	0.176
RRIRHRPPRLPRPRPRPSRAPRP	0.373
RRIRHRPPRLPRPRPRPSRLPRP	0.39
RRIRHRPPRLPRPRPRPSRMPRP	-0.518
RRIRHRPPRLPRPRPRPSRWPRP	0.102
RRIRHRPPRLPRPRPRPSWTPRP	-0.356
RRIRHRPPRLPRPRPRPSWVPRP	-0.0882

Sequence	shrunken log2 fold change
RRIRHRPPRLPRPRPRPTASPRP	-0.131
RRIRHRPPRLPRPRPRPTELPRP	0.0215
RRIRHRPPRLPRPRPRPTEMPRP	0.181
RRIRHRPPRLPRPRPRPTFAPRP	3.26
RRIRHRPPRLPRPRPRPTFWPRP	0.179
RRIRHRPPRLPRPRPRPTGEPRP	-0.0103
RRIRHRPPRLPRPRPRPTGRPRP	-0.089
RRIRHRPPRLPRPRPRPTHAPRP	0.233
RRIRHRPPRLPRPRPRPTKDPRP	-0.154
RRIRHRPPRLPRPRPRPTMQPRP	-0.0838
RRIRHRPPRLPRPRPRPTMVPRP	-0.224
RRIRHRPPRLPRPRPRPTMYPRP	0.000437
RRIRHRPPRLPRPRPRPTNKPRP	-0.557
RRIRHRPPRLPRPRPRPTNTPRP	-0.384
RRIRHRPPRLPRPRPRPTPPPRP	0.391
RRIRHRPPRLPRPRPRPTRAPRP	0.348
RRIRHRPPRLPRPRPRPTSEPRP	0.0261
RRIRHRPPRLPRPRPRPTSVPRP	-0.0283
RRIRHRPPRLPRPRPRPTWHPRP	-0.073
RRIRHRPPRLPRPRPRPTYCPRP	-0.129
RRIRHRPPRLPRPRPRPTYIPRP	-0.573
RRIRHRPPRLPRPRPRPTYQPRP	0.0668

Sequence	shrunken log2 fold change
RRIRHRPPRLPRPRPRPVCCPRP	-0.0885
RRIRHRPPRLPRPRPRPVCGPRP	0.137
RRIRHRPPRLPRPRPRPVCVPRP	-0.216
RRIRHRPPRLPRPRPRPVDGPRP	-0.00557
RRIRHRPPRLPRPRPRPVDMPRP	-0.201
RRIRHRPPRLPRPRPRPVFFPRP	-0.0644
RRIRHRPPRLPRPRPRPVFMPRP	-0.311
RRIRHRPPRLPRPRPRPVISPRP	-0.199
RRIRHRPPRLPRPRPRPVKNPRP	0.0467
RRIRHRPPRLPRPRPRPVLHPRP	-0.501
RRIRHRPPRLPRPRPRPVLMPRP	-0.381
RRIRHRPPRLPRPRPRPVPKPRP	0.0819
RRIRHRPPRLPRPRPRPVQLPRP	-0.0712
RRIRHRPPRLPRPRPRPVQVPRP	-0.162
RRIRHRPPRLPRPRPRPVRRPRP	0.241
RRIRHRPPRLPRPRPRPVSIPRP	-0.00904
RRIRHRPPRLPRPRPRPVWWPRP	0.174
RRIRHRPPRLPRPRPRPVYWPRP	-0.262
RRIRHRPPRLPRPRPRPWAPPRP	-0.251
RRIRHRPPRLPRPRPRPWCNPRP	-0.417
RRIRHRPPRLPRPRPRPWDVPRP	-0.0319
RRIRHRPPRLPRPRPRPWFLPRP	-0.315

Sequence	shrunken log2 fold change
RRIRHRPPRLPRPRPRPWGGPRP	0.39
RRIRHRPPRLPRPRPRPWGVPRP	-0.141
RRIRHRPPRLPRPRPRPWHPPRP	-0.801
RRIRHRPPRLPRPRPRPWHTPRP	-0.566
RRIRHRPPRLPRPRPRPWMCPRP	-1.49
RRIRHRPPRLPRPRPRPWMIPRP	-0.00164
RRIRHRPPRLPRPRPRPWMSPRP	-0.0135
RRIRHRPPRLPRPRPRPWMWPRP	-0.0064
RRIRHRPPRLPRPRPRPWNKPRP	-0.111
RRIRHRPPRLPRPRPRPWPFPRP	-0.285
RRIRHRPPRLPRPRPRPWQNPRP	-0.169
RRIRHRPPRLPRPRPRPWREPRP	-0.0297
RRIRHRPPRLPRPRPRPWRQPRP	0.0449
RRIRHRPPRLPRPRPRPWVAPRP	-0.0296
RRIRHRPPRLPRPRPRPWVFPRP	0.139
RRIRHRPPRLPRPRPRPWYHPRP	-1.53
RRIRHRPPRLPRPRPRPWYVPRP	0.00296
RRIRHRPPRLPRPRPRPYACPRP	-0.225
RRIRHRPPRLPRPRPRPYALPRP	-0.078
RRIRHRPPRLPRPRPRPYCKPRP	-1.02
RRIRHRPPRLPRPRPRPYCYPRP	-0.577
RRIRHRPPRLPRPRPRPYEHPRP	-1.01

Sequence	shrunken log2 fold change
RRIRHRPPRLPRPRPRPYFKPRP	-1.03
RRIRHRPPRLPRPRPRPYFPPRP	-1.43
RRIRHRPPRLPRPRPRPYGCPRP	-0.118
RRIRHRPPRLPRPRPRPYHYPRP	-0.125
RRIRHRPPRLPRPRPRPYIDPRP	-0.0149
RRIRHRPPRLPRPRPRPYLDPRP	0.00552
RRIRHRPPRLPRPRPRPYLLPRP	-0.611
RRIRHRPPRLPRPRPRPYLRPRP	-0.173
RRIRHRPPRLPRPRPRPYMFPRP	-0.319
RRIRHRPPRLPRPRPRPYMYPRP	-1.14
RRIRHRPPRLPRPRPRPYNGPRP	-0.835
RRIRHRPPRLPRPRPRPYNKPRP	-0.681
RRIRHRPPRLPRPRPRPYSAPRP	0.0254
RRIRHRPPRLPRPRPRPYWAPRP	-0.186
RRIRHRPPRLPRPRPRPYWVPRP	-0.26
RRIRHRPPRLPRPRPRPYYIPRP	0.0121
RRIRIRPPRLPRPRPRPAAQPRP	0.14
RRIRIRPPRLPRPRPRPACMPRP	-0.0966
RRIRIRPPRLPRPRPRPAGTPRP	-0.108
RRIRIRPPRLPRPRPRPAGWPRP	0.582
RRIRIRPPRLPRPRPRPAHQPRP	-0.0564
